Target: T1, S. cerevisiae Scc3, full-length protein (S. cerevisiae, UniProt P40541 1-1150)
T1 construct: Scc3, S. cerevisiae (UniProt SCC3_YEAST, P40541), full-length / intact protein; also called Sc Scc3; intact Scc3 protein; source: E. coli BL21(DE3) RIPL, purified (Talon beads, Superdex 200)
T1 sequence (looked up): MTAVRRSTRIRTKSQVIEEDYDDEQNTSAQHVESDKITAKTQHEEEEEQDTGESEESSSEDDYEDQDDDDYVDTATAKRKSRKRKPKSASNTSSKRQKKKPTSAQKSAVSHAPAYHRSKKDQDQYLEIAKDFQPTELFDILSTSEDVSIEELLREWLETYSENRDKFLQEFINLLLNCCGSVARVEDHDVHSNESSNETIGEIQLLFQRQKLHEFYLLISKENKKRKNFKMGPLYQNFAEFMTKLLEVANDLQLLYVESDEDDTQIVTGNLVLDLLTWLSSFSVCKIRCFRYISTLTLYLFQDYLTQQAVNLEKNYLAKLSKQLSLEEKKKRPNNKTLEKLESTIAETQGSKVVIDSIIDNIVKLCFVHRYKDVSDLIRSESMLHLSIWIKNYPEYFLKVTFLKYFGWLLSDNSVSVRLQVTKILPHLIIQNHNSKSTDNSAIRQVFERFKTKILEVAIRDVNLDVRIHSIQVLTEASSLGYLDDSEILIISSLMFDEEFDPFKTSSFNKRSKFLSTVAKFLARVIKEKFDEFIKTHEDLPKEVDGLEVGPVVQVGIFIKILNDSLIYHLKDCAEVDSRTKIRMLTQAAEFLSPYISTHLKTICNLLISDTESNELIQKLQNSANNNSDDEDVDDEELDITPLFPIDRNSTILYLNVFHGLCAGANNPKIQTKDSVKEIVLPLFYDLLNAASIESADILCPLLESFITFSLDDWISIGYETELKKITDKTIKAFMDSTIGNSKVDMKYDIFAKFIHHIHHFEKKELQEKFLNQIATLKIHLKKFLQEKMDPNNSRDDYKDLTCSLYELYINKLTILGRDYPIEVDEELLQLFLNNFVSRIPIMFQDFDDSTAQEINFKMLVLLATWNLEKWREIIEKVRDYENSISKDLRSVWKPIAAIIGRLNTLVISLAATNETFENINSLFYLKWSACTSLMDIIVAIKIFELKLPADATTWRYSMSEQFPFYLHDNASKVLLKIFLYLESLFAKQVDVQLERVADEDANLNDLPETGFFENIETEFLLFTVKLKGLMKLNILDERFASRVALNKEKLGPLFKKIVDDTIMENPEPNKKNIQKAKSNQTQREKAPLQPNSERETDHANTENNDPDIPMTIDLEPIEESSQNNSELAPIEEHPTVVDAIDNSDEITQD
Assay: pull-down; two differently tagged versions of Scc1 (259–451) in the presence of intact Scc3 protein; 5 μM of each in TAP buffer, resin 2 h at 4 °C (Fig. 2-fig^1C)
Settings: both partners purified

binding result: binds
B1: S. cerevisiae Scc1 (259–451), two differently tagged versions (domain or fragment, UniProt Q12158 259-451, looked up)
chain: DDDNSVEQGRRLGESIMSEEPTDFGFDLDIEKEAPAGNIDTITDAMTESQPKQTGTRRNSKLLNTKSIQIDEETENSESIASSNTYKEERSNNLLTPQPTNFTTKRLWSEITESMSYLPDPILKNFLSYESLKKRKIHNGREGSIEEPELNVSLNLTDDVISNAGTNDNSFNELTDNMSDFVPIDAGLNEAPF
notes: source: E. coli BL21(DE3) RIPL, purified (Talon beads, Superdex 200)

From paper PMC4175184, “Structure and function of cohesin’s Scc3/SA regulatory subunit” (Febs Letters, 2014)
